Measured values: US20080193980A1

Biological target: Human IgG
Assay: plate coated with human IgG, luminescence (Imax) after CaCl2

concentration at which the luminescence intensity reached a plateau: 10 ng/mL
Substance: Protein A-AQ fusion protein (from UniProt P02976 37-307; P07164 9-196)
